Substitutions are numbered along the chain they refer to. Values belong to the binder of their own block, whether it stands above or below them.
Legend:
[1] = biological target: T1, Human ALK2-His (Cat. #10227-H088) from Sino Biological Inc. (human, UniProt Q04771 21-123); assay: ELISA of hybridoma culture supernatant on antigen immobilized at 1 µg/ml (selection of hybridomas)
T1 construct: Bought recombinant protein; also called the antigen; not shown: His tag
T1 sequence: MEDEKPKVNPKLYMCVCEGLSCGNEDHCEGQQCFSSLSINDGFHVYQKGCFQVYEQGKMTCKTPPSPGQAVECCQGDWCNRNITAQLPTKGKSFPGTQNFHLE
Procedure: One week after the cell fusion, using each culture supernatant, clones recognizing human ALK2-His used as the antigen were selected by the enzyme-linked immunosorbent assay (ELISA), and clones recognizing human ALK1-His (Sino Biological Inc.) were excluded. ELISA was performed as follows.
First, the antigen diluted to 1 μg/ml with PBS was immobilized onto a 96-well ELISA plate (NUNC, Cat. #442404) for 2 hours at room temperature or overnight at 4° C. The immobilized solution was removed, and the plate was blocked with a 0.5% skim milk solution dissolved in PBS for 30 minutes at room temperature. Next, the above-described culture supernatant of hybridomas was added, and the plate was left for 1 hour at room temperature. After the plate was washed, an ALP-labeled anti-rat IgG antibody (SAB, Inc.) diluted with a 0.5% skim milk solution to 1:2500 was added, and the plate was further left for 1 hour at room temperature. After the plate was washed, a phenyl phosphate substrate was reacted at room temperature, and then absorbance at a wavelength of 492 nm was measured.

[2] = biological target: T2, human ALK2(WT)-V5-His expressed in HEK293A cells (human, UniProt Q04771 21-509); assay: conclusion from BMP-specific luciferase reporter assay in transfected HEK293A cells
T2 construct: Full-length receptor overexpressed by transient transfection; also called pcDEF3/human ALK2(WT)-V5-His; human ALK2(WT)-VS-His; not shown: V5-His tag of the pcDEF3 construct
T2 sequence: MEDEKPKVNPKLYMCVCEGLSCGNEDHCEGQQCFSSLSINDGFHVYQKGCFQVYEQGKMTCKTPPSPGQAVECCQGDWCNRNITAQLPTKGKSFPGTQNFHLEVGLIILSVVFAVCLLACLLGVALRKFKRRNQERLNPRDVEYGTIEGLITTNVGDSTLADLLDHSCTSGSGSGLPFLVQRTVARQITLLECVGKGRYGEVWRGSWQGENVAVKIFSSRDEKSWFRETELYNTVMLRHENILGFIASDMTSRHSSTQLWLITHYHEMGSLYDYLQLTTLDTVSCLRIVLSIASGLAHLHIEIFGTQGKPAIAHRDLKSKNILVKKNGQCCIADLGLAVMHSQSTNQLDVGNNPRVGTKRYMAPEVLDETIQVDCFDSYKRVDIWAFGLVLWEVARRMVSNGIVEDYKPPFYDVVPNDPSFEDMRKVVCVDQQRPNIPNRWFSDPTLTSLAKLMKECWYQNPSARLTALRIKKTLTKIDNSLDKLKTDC

[3] = biological target: T3, mouse ALK2(WT)-V5-His expressed in HEK293A cells (mouse, UniProt P37172 21-509); assay: as above
T3 construct: Full-length receptor overexpressed by transient transfection; also called pcDEF3/mouse ALK2(WT)-V5-His; not shown: V5-His tag of the pcDEF3 construct
T3 sequence: T2 sequence with M1V, P10Q, L121I, D162E, P310S

[4] = biological target: T4, rat ALK2(WT)-V5-His expressed in HEK293A cells (rat, UniProt P80201 21-509); assay: as above
T4 construct: the end 509 for rat is meant as the end of the entry; also called rat wild-type ALK2; pcDEF3/rat ALK2(WT)-V5-His; not shown: V5-His tag of the pcDEF3 construct
T4 sequence: T2 sequence with K5E, I39V, H44R, I83V, Q86R, T97S, L118F, L121I, D162E, P310S

[5] = biological target: T5, ALK2 expressed in mice (C57BL/6 mouse newborn organs, tissue sections) (mouse, UniProt P37172 21-509); assay: immunohistological staining of frozen sections of mouse newborns; 10 µg/ml primary antibody
T5 construct: Endogenous protein in paraformaldehyde-fixed frozen or paraffin sections of mouse newborns; not a purified protein; also called mouse ALK2 (endogenous)
T5 sequence: T2 sequence with M1V, P10Q, L121I, D162E, P310S
Procedure: C57BL/6 mouse newborns were each fixed in a 4% paraformaldehyde-phosphate buffer solution for 2 days and then freeze-embedded in O.C.T Compound (manufactured by Sakura Finetek Japan Co., Ltd.), and frozen sections were prepared with a thickness of 5 μm using a cryostat (manufactured by Leica Biosystems Nussloch GmbH, Cat. #CM3050S). The sections were washed with PBS three time and reacted with an endogenous enzyme activity blocking solution (manufactured by Vector Laboratories, Inc., Cat. #SP-6000) for 10 minutes. […] On the following day, the sections were washed with PBS-T three times and reacted with HRP-conjugated anti-rat IgG antibody ImmPRESS Reagent (manufactured by Vector Laboratories, Inc., Cat. #MP-7444) as a secondary antibody for 30 minutes at 37° C. Then, the sections were washed with PBS-T three times, and DAB color development (manufactured by Vector Laboratories, Inc., Cat. #SK-4100) was performed. After washing with distilled water, the sections were counter-stained with hematoxylin, mounted on a glass cover according to a standard method, and observed under BZ-9000 (manufactured by Keyence Corp.).

[6] = biological target: T6, human ALK2-EGFP expressed in HEK293A cells (human, UniProt Q04771 21-509); assay: conclusion from flow cytometry competition with labeled A2-27D on HEK293A cells expressing human ALK2-EGFP
T6 construct: also called pcDEF3/human ALK2-EGFP; not shown: EGFP fused to ALK2
T6 sequence: T2 sequence
Procedure: In the same manner as in Example 3, HEK293A cells were transiently transfected with pcDEF3/human ALK2-EGFP using Lipofectamine 2000 (manufactured by Thermo Fisher Scientific Inc.). After 2.5 hours, the medium was replaced with fresh 10% FBS-containing DMEM medium, and the cells were cultured overnight. On the following day, […] each of the cell suspensions adjusted to 1×10⁶ cells/mL was dispensed into a 1.5-mL microfuge and centrifuged at 500 g for 5 minutes, and then the supernatant was removed. To the cells, 100 μL of a mixed solution of Alexa fluor 647-labeled A2-27D diluted to 1 μg/mL and 10 μg/mL purified IgG was added, and the cells were left for 30 minutes at 4° C. After the cells were washed with PBS three times, fluorescence was detected by a flow cytometer (BD Accuri C6; manufactured by BD Biosciences). The intensity of EGFP expressed by the cells and the fluorescence intensity of stained Alexa flour 647 were plotted.

binding result [1]: binds
B1: rat anti-human ALK2 monoclonal antibody produced by the hybridoma #109 (antibody, V domains shown)
VH: EVQLVESGGDLVQPGRSMKLSCAASGFTFSNYGMAWVRQAPTKGLEWVATISYDGSGTYYRDSVEGRFTISRDNAKITLYLQMNSLRSEDTATYYCTRHGYSRVPYFDYWGQGVMVTVSS
VL: NIVLTQSPATLSVTPGESVSLSCRASQSISTNIHWYQQKSNESPRLLIKYASQSISGIPSRFSGSGSGTDFTLTINRVESEDFSIYYCQQSYSSQLTFGSGTKLEIKR
notes: Rat monoclonal antibody from a hybridoma

binding result [2]: binds
binding result [3]: binds
binding result [4]: binds
binding result [5]: binds
binding result [1]: binds
binding result [6]: binds
B2: rat anti-human ALK2 monoclonal antibody produced by the hybridoma #200 (antibody, V domains shown)
VH: QVKLLQSGAALVKPGDSIRMSCKASGYTFTDYIIHWVKQSHGKSLEWIGYINPYSGGTNYNEKFKSKATLTVDKSSSTAYMEFCRLTSEDSAIYYCVRRGHDGTGFDYWGQGVMVTVSS
VL: DVVMTQTPVSLPVSLGGQASISCRSSQSLVHSNGETYLHWYLQKPGQSPQLLIYRVSNRFSGVPDRFSGSGSGTDFTLKLSRVEPEDLGDYYCLQSTHLPLTFGSGTKLEIKR
notes: Rat monoclonal antibody from a hybridoma; also called clone #200; ALK2_#200
